Results published in PMC6905151, “Mapping of the binding site for FcμR in human IgM-Fc” (Biochimica et Biophysica Acta. Proteins and Proteomics, 2020).

Molecular target: T1, soluble extracellular immunoglobulin-like domain of FcμR (human)
T1 construct: FcμR (FAIM3, TOSO), human; 390-aa polypeptide with a 17-aa signal peptide and a 107-aa Ig-like domain; The receptor clone came from Prof; H. Kubagawa; also called sIgFcμR; not shown: His tag (from the nickel column chromatography)
T1 sequence (O60667 whole entry, looked up): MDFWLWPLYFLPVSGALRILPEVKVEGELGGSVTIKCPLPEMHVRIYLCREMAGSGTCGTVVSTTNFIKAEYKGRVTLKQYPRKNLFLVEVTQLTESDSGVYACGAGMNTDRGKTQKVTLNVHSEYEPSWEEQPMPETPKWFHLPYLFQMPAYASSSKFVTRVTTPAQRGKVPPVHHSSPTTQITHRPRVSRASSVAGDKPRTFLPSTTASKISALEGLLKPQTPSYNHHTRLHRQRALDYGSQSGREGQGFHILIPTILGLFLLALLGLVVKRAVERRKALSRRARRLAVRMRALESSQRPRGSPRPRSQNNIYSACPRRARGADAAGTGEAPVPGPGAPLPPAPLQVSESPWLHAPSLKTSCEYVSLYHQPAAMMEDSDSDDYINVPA
Experiment: SPR; Biacore T200, 25 °C, 0.01 M HEPES, 0.15 M NaCl, 0.005% Surfactant P20, pH 7.4; IgM, IgM-Fc, Fcμ3-4 or IgM-Fc mutants immobilised on CM5 by amine coupling; analyte sIgFcμR 0.25 μM to 12 μM; steady state, 1:1 binding model
Conditions: both partners purified

Kd: 1090 nM
B1: Fcμ3-4, dimer of Cμ3-Cμ4 domains (domain or fragment)
chain: DQDTAIRVFAIPPSFASIFLTKSTKLTCLVTDLTTYDSVTISWTRQNGEAVKTHTNISESHPNATFSAVGEASISEDDWNSGERFTCTVTHTDLPSPLKQTISRPKGVALHRPDVYLLPPAREQLNLRESATITCLVTGFSPADVFVQWMQRGQPLSPEKYVTSAPMPEPQAPGRYFAHSILTVSEEEWNTGETYTCVVAHEALPNRVTERTVDKSTGK
